# T1: TIF2.4 (Homo sapiens, UniProt Q15596)
# T1 sequence (Q15596 624-1010 limits assumed): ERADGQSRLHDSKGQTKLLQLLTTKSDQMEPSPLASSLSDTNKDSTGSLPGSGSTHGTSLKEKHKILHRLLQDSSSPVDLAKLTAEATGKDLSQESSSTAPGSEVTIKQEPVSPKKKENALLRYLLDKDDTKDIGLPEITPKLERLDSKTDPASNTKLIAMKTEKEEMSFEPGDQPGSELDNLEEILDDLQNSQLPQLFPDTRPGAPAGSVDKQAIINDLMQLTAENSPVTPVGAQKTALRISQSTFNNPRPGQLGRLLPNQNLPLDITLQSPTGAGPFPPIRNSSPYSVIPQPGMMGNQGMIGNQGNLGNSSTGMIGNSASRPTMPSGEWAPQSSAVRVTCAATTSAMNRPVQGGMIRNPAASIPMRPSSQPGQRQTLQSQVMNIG
# T2: RXR α (Homo sapiens, UniProt P19793)
# T2 construct: plus VP16 fused to the indicated full length receptors; expressed in transfected cells; host or cells: CV-1
# T2 sequence (P19793 1-462): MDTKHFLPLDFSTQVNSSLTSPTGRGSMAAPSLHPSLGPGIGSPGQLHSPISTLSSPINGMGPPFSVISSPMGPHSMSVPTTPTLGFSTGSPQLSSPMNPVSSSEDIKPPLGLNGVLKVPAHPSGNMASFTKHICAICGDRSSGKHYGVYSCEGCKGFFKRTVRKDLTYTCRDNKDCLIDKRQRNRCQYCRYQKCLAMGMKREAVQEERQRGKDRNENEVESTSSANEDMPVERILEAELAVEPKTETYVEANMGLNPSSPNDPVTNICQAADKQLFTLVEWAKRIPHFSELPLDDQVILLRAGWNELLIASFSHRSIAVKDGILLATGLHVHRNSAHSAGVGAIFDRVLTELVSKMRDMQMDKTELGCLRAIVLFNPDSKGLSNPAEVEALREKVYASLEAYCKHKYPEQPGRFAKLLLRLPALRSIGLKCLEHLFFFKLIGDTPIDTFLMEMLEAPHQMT
# Legend:
# Format in all cases: cell-based
# PCAF = biological target: T3, PCAF (Homo sapiens, UniProt Q92831); test: Mammalian two-hybrid assay with PCAF; conditions: data not shown
# T3 construct: expressed in transfected cells; host or cells: CV-1 (the same two-hybrid assay)
# T3 sequence (Q92831 whole entry, species assumed): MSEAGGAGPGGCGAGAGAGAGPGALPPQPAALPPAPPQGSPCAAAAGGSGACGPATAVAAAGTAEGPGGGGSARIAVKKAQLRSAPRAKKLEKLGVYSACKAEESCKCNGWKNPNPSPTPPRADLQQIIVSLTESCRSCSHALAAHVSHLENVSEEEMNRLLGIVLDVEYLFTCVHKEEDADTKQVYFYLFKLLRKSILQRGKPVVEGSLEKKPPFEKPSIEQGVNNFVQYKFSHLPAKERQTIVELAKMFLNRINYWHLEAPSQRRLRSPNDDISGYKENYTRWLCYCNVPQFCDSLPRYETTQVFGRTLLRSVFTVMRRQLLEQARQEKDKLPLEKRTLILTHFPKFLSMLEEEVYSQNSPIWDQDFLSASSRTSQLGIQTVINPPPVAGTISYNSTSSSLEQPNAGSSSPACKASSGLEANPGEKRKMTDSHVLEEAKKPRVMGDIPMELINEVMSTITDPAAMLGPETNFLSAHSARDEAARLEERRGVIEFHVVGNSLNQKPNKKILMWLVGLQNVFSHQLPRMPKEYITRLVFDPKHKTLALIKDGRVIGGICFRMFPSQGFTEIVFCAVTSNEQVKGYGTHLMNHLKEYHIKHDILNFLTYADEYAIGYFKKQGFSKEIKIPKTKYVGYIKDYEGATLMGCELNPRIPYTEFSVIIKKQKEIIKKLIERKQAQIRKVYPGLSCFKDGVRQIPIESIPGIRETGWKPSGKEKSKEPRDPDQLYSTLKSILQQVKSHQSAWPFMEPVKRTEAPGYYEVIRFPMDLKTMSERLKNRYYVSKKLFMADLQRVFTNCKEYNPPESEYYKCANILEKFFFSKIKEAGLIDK
# Procedure: (§1) These assays were conducted as described (He et al., 2002). In particular, the recommended procedure for the Mammalian Matchmaker two-hybrid assay kit (Clontech) was modified slightly by changing from a chloramphenicol acetyltransferase reporter to a Luciferase Reporter pFRLuc (Stratagene), which is under the control of five repeats of the upstream activating sequence for the binding of GAL4.
# TIF2.4 = biological target: T1, TIF2.4; test: Mammalian two-hybrid assay in CV-1 cells (pFRLuc reporter) with TIF2.4; parameters: expressed in transfected cells; host or cells: CV-1
# From the text: FIG. 2A-2C illustrate the isolation and characterization of the partial clone of the protein that binds to TIF2.4. […] Five clones were obtained but only two (clones I and V) contained a protein that was needed for colony growth in the presence of the pSos/TIF2.4 fusion protein. After initial screening, only clone I (also named 6-6CL1) was selected for further investigation. FIG. 2B and FIG. 2C illustrate the selectivity of 6-6CL1 interactions with TIF2.4 in mammalian two-hybrid assays. Triplicate samples of CV-1 cells in 24-well plates were transiently transfected with the indicated GAL-DBD and VP16-AD plasmids along with the GAL4-regulated reporter, pFRLuc. The relative luciferase activity, normalized for the activity of the internal Renilla control, was determined and plotted as the average±S.D. The much lower activity of GAL/TIF2.4m123 was previously shown not to be due to unequal levels of protein expression (He et al., 2002). Similar results were obtained in three additional experiments. FIG. 2D and FIG. 2E provide a comparison of binding to 6-6CL1 by similarly positioned domains of SRC-1 and TIF2. Triplicate samples of CV-1 cells in 24-well plates were analyzed as in (B&C) after being transiently transfected with GAL±6-6CL1 constructs and pFRLuc reporter along with VP16 chimeras of SRC-1 (FIG. 2D) or TIF2 (FIG. 2E) segments. Similar results for SRC-1 were obtained in two additional experiments (ND=not determined). Western blots (FIG. 2F) indicate that the low activity of TIF2(1140C) (see FIG. 1) is not due to inadequate protein expression.
# FIGS. 6A and 6B illustrate the domains of STAMP that interact with TIF2.4 (FIG. 6A) and GR (FIG. 6B) in the mammalian two-hybrid assay. […] These CV-1 cells were also transfected with GAL fused to the indicated segments of STAMP along with the FRLuc reporter and Renilla control plasmids. After determining the relative luciferase activities as described in FIG. 2B and 2C, the average values±S.E.M. from 2-5 experiments were plotted. The average fold increase for VP16/TIF2.4 with GAL/STAMP(623-834) in FIG. 6A was 11.0±3.0 (SEM, n=5) above the VP16 control. The values in parentheses above the data bars in FIG. 6B indicate the fold increased interaction ±1 μM Dex.
# as §1
# ERβ = biological target: T4, ERβ (Homo sapiens, UniProt Q92731); test: Mammalian two-hybrid assay with VP16 full length receptor: ERβ; conditions: 1 μM estradiol
# T4 construct: plus VP16 fused to the indicated full length receptors; expressed in transfected cells; host or cells: CV-1
# T4 sequence (Q92731 whole entry, species assumed, the tested form may be a part): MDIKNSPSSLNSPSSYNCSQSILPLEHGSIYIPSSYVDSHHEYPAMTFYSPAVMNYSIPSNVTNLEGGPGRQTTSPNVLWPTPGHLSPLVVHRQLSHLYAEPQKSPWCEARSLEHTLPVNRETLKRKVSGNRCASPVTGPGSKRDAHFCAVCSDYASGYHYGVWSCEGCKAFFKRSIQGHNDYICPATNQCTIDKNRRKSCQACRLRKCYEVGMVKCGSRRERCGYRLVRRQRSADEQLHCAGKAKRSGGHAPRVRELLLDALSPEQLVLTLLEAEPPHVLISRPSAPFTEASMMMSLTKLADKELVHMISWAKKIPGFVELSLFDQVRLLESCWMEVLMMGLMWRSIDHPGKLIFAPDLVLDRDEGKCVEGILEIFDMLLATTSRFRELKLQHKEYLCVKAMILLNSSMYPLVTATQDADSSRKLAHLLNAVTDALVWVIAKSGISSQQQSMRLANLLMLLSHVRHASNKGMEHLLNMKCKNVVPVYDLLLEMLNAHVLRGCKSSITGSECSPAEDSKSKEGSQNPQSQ
# Procedure: (§2) FIG. 6C1-3 illustrate the association of STAMP with assorted steroid/nuclear receptors, including glucocorticoid receptors (GRs), progesterone receptors (PRs), androgen receptors (ARs), estrogen receptors (ER α or β), PPARγ2 receptors, thyroid receptor beta (TR), and retinoid (α) receptors (RAR α or RXR α). Triplicate samples of CV-1 cells were transfected (as described for FIG. 6B) with GAL, or GAL fused to TIF2.4 or STAMP834C, plus VP16 fused to the indicated full length receptors and incubated with the appropriate steroid (1 μM Dex, 20 nM R5020, 1 nM R1881, 0.1 μM triiodothyronine, or 1 μM estradiol, roziglitazone, or 9-cis-retinoic acid). The average relative luciferase activities of 2-3 experiments±S.E.M. were then plotted. FIG. 6C1 illustrates the effects of STAMP association upon GR, PR and AR induced expression. FIG. 6C2 illustrates the effects of STAMP association upon ERα, ERβ and PPARγ2 induced expression. FIG. 6C3 illustrates the effects of STAMP association upon TR, RARα and RXRα induced expression.
# (§3) These assays were conducted as described (He et al., 2002). […]
# RXR α = biological target: T2, RXR α; test: Mammalian two-hybrid assay with VP16 full length receptor: RXRα; conditions: 1 μM 9-cis-retinoic acid
# Procedure: as §2, §3
association with PCAF (PCAF),interaction with TIF2.4 (TIF2.4),"average fold increase for VP16/TIF2.4 above the VP16 control (TIF2.4; SEM, n=5)",interaction with estrogen receptor β (ERβ),interaction with RXR α (RXR α),Molecule
negligible association,did interact,11.0±3.0 fold,–,–,"6-6CL1: STAMP fragment amino acids 623-834, coactivator interaction domain (CID) (protein) ENTPKENSMKVREWNNKGGHCCKLETQELEPKFNLMQILQDNGNLSKMQARIAFSAYLQHVQIRLMKDSGGQTFSASWAAKEDEQMELVVRFLKRASNNLQHSLRMVLPSRRLALLERRRILAHQLGDFIIVYNKETEQMAEKKSKKKVEEEEEDGVNMENFQEFIRQASEAELEEVLTFYTQKNKSASVFLGTHSKISKNNNNYSDSGAKG"
–,weak response,–,lack of interaction,lack of interaction,"STAMP834C: STAMP fragment amino acids 834-1277, receptor interaction domain (RID) (protein) GDHPETIMEEVKIKPPKQQQTTEIHSDKLSRFTTSAEKEAKLVYSNSSSGPTATLQKIPNTHLSSVTTSDLSPGPCHHSSLSQIPSAIPSMPHQPTILLNTVSASASPCLHPGAQNIPSPTGLPRCRSGSHTIGPFSSFQSAAHIYSQKLSRPSSAKAGSCYLNKHHSGIAKTQKEGEDASLYSKRYNQSMVTAELQRLAEKQAARQYSPSSHINLLTQQVTNLNLATGIINRSSASAPPTLRPIISPSGPTWSTQSDPQAPENHSSSPGSRSLQTGGFAWEGEVENNVYSQATGVVPQHKYHPTAGSYQLQFALQQLEQQKLQSRQLLDQSRARHQAIFGSQTLPNSNLWTMNNGAGCRISSATASGQKPTTLPQKVVPPPSSCASLVPKPPPNHEQVLRRATSQKASKGSSAEGQLNGLQSSLNPAASVPITSSTDPAHTKI"
